What was measured:
recombinant human IL-6 [1] = target: T1, recombinant human IL-6 (human, UniProt P05231 30-212); assay: Biacore at 37 C, antibody captured on Protein A, IL-6 as analyte
T1 construct: bought protein; also called interleukin-6
T1 sequence (P05231 30-212 limits assumed): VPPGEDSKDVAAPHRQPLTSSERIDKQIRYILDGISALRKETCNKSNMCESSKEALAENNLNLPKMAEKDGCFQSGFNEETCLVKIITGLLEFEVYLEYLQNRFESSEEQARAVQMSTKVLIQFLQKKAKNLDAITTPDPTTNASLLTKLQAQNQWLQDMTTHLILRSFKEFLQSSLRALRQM

recombinant human IL-6 [2] = target: T1, recombinant human IL-6; assay: Biacore, antibody captured on Protein A, IL-6 as analyte
Protocol: Antibodies were captured on a Protein A chip (GE) by injecting 1:20 cell supernatant dilutions at 10 μL/min for 60 seconds. […] The sensor chip was regenerated by a 60 seconds injection of 10 mM Glycine pH 1.7 at the flow rate of […]. […] For this setup, 1 μg/mL of purified antibody was injected over a Protein A chip at 10 μL/min for 25 seconds. […] The sensor chip was regenerated by a 60 seconds injection of 10 mM Glycine pH 1.7 at flow rate of 50 μL/min. Data analysis for supernatant and purified samples were performed using BIAevaluation software (GE). All sensorgrams were double reference subtracted and fit using a 1:1 Langmuir binding model.

VEGF = VEGF (UniProt P15692-4 27-191, limits assumed); assay: cell-based or functional assay
recombinant human IL-6 [3] = target: T2, recombinant human IL-6 (human, UniProt P05231 30-212); assay: SPR Biacore, purified dual inhibitor captured on Protein A, IL-6 analyte, 37 C
T2 construct: Analyte in the Biacore assays; also called interleukin-6
T2 sequence (P05231 30-212 limits assumed): as above

recombinant human IL-6 [4] = target: T2, recombinant human IL-6; assay: SPR Biacore, cell supernatant dual inhibitor captured on Protein A, IL-6 analyte, 25 C

Sequence of VEGF (P15692 other isoform, or with tags, fused parts or gaps limits assumed): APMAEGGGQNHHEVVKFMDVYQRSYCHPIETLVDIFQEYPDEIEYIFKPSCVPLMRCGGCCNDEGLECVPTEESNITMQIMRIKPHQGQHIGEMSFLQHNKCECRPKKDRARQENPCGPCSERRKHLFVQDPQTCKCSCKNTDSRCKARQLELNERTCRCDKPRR

B1: anti-IL-6 antibody, heavy chain S35H, G66D, light chain M32L/M50D/N52S/M88Q (antibody, human IgG1, V domains shown)
VH: EVQLVESGGGLVQPGGSLRLSCAASGFTFSPFAMHWVRQAPGKGLEWVAKISPGGSWTYYSDTVTDRFTFSLDTSKSTAYLQMNSLRAEDTAVYYCARQLWGYYALDIWGQGTLVTVSS
VL: DIQLTQSPSSLSASVGDRVTITCSASISVSYLYWYQQKPGKAPKLLIYDDSSLASGVPSRFSGSGSGTDFTLTISSLQPEDFATYYCQQWSGYPYTFGQGTKVEIK
notes: engineered human IgG1 as m23; also called S35H G66D double mutant with mutagenized light chain
- fold increase in affinity relative to the wild-type heavy chain (recombinant human IL-6 [1]): ~1.3 fold

B2: anti-IL-6 antibody, heavy chain variant II (M34W/G66D/I108V), light chain variant III (M32L/M50D/N52S/M88Q) (antibody, human IgG1, V domains shown)
VH: EVQLVESGGGLVQPGGSLRLSCAASGFTFSPFAWSWVRQAPGKGLEWVAKISPGGSWTYYSDTVTDRFTFSLDTSKSTAYLQMNSLRAEDTAVYYCARQLWGYYALDVWGQGTLVTVSS
VL: DIQLTQSPSSLSASVGDRVTITCSASISVSYLYWYQQKPGKAPKLLIYDDSSLASGVPSRFSGSGSGTDFTLTISSLQPEDFATYYCQQWSGYPYTFGQGTKVEIK
notes: engineered human IgG1; also called II/III
- binding result (recombinant human IL-6 [2]): binds

B3: anti-IL-6 antibody, heavy chain variant II (M34W/G66D/I108V), light chain variant IV (M32L/M50A/N52S/M88Q) (antibody, human IgG1, V domains shown)
VH: EVQLVESGGGLVQPGGSLRLSCAASGFTFSPFAWSWVRQAPGKGLEWVAKISPGGSWTYYSDTVTDRFTFSLDTSKSTAYLQMNSLRAEDTAVYYCARQLWGYYALDVWGQGTLVTVSS
VL: DIQLTQSPSSLSASVGDRVTITCSASISVSYLYWYQQKPGKAPKLLIYDASSLASGVPSRFSGSGSGTDFTLTISSLQPEDFATYYCQQWSGYPYTFGQGTKVEIK
notes: engineered human IgG1; also called II/IV
- binding result (recombinant human IL-6 [2]): binds

B4: anti-IL-6 antibody, heavy chain variant I (M34I/G66D/I108V), light chain variant V (M32L/M50D/M88Q) (antibody, human IgG1, V domains shown)
VH: EVQLVESGGGLVQPGGSLRLSCAASGFTFSPFAISWVRQAPGKGLEWVAKISPGGSWTYYSDTVTDRFTFSLDTSKSTAYLQMNSLRAEDTAVYYCARQLWGYYALDVWGQGTLVTVSS
VL: DIQLTQSPSSLSASVGDRVTITCSASISVSYLYWYQQKPGKAPKLLIYDDSNLASGVPSRFSGSGSGTDFTLTISSLQPEDFATYYCQQWSGYPYTFGQGTKVEIK
notes: engineered human IgG1; also called I/V
- binding result (recombinant human IL-6 [2]): binds

B5: anti-IL-6 antibody, heavy chain S35H, G66D, light chain wild-type (antibody, human IgG1, V domains shown)
VH: EVQLVESGGGLVQPGGSLRLSCAASGFTFSPFAMHWVRQAPGKGLEWVAKISPGGSWTYYSDTVTDRFTFSLDTSKSTAYLQMNSLRAEDTAVYYCARQLWGYYALDIWGQGTLVTVSS
VL: DIQLTQSPSSLSASVGDRVTITCSASISVSYMYWYQQKPGKAPKLLIYDMSNLASGVPSRFSGSGSGTDFTLTISSLQPEDFATYYCMQWSGYPYTFGQGTKVEIK
notes: engineered human IgG1 as m23; also called S35H G66D double mutant
- fold increase in affinity relative to the wild-type heavy chain (recombinant human IL-6 [1]): ~2 fold

B6: anti-IL-6 antibody, heavy chain variant II (M34W/G66D/I108V), light chain variant V (M32L/M50D/M88Q) (antibody, human IgG1, V domains shown)
VH: EVQLVESGGGLVQPGGSLRLSCAASGFTFSPFAWSWVRQAPGKGLEWVAKISPGGSWTYYSDTVTDRFTFSLDTSKSTAYLQMNSLRAEDTAVYYCARQLWGYYALDVWGQGTLVTVSS
VL: DIQLTQSPSSLSASVGDRVTITCSASISVSYLYWYQQKPGKAPKLLIYDDSNLASGVPSRFSGSGSGTDFTLTISSLQPEDFATYYCQQWSGYPYTFGQGTKVEIK
notes: engineered human IgG1; also called II/V
- binding result (recombinant human IL-6 [2]): binds

B7: anti-IL-6 antibody, heavy chain variant I (M34I/G66D/I108V), light chain variant IV (M32L/M50A/N52S/M88Q) (antibody, human IgG1, V domains shown)
VH: EVQLVESGGGLVQPGGSLRLSCAASGFTFSPFAISWVRQAPGKGLEWVAKISPGGSWTYYSDTVTDRFTFSLDTSKSTAYLQMNSLRAEDTAVYYCARQLWGYYALDVWGQGTLVTVSS
VL: DIQLTQSPSSLSASVGDRVTITCSASISVSYLYWYQQKPGKAPKLLIYDASSLASGVPSRFSGSGSGTDFTLTISSLQPEDFATYYCQQWSGYPYTFGQGTKVEIK
notes: engineered human IgG1; also called I/IV
- binding result (recombinant human IL-6 [2]): binds

B8: VEGFR-AntiIL6 (heavy chain of sequences 1A-2A-3H, light chain of sequence 4A) (bispecific antibody)
fusion: SDTGRPFVEMYSEIPEIIHMTEGRELVIPCRVTSPNITVTLKKFPLDTLIPDGKRIIWDSRKGFIISNATYKEIGLLTCEATVNGHLYKTNYLTHRQTNTIIDVVLSPSHGIELSVGEKLVLNCTARTELNVGIDFNWEYPSSKHQHKKLVNRDLKTQSGSEMKKFLSTLTIDGVTRSDQGLYTCAASSGLMTKKNSTFVRVHEKGGGGSGGGGSEVQLVESGGGLVQPGGSLRLSCAASGFTFSPFAISWVRQAPGKGLEWVAKISPGGSWTYYSDTVTDRFTFSLDTSKSTAYLQMNSLRAEDTAVYYCARQLWGYYALDVWGQGTLVTVSSASTKGPSVFPLAPSSKSTSGGTAALGCLVKDYFPEPVTVSWNSGALTSGVHTFPAVLQSSGLYSLSSVVTVPSSSLGTQTYICNVNHKPSNTKVDKKVEPKSCDKTHTCPPCPAPEAAGAPSVFLFPPKPKDTLMISRTPEVTCVVVDVSHEDPEVKFNWYVDGVEVHNAKTKPREEQYNSTYRVVSVLTVLHQDWLNGKEYKCKVSNKALPAPIEKTISKAKGQPREPQVYTLPPSREEMTKNQVSLTCLVKGFYPSDIAVEWESNGQPENNYKTTPPVLDSDGSFFLYSKLTVDKSRWQQGNVFSCSVMHEALHNHYTQKSLSCSPGK
light: DIQLTQSPSSLSASVGDRVTITCSASISVSYLYWYQQKPGKAPKLLIYDDSSLASGVPSRFSGSGSGTDFTLTISSLQPEDFATYYCQQWSGYPYTFGQGTKVEIKRTVAAPSVFIFPPSDEQLKSGTASVVCLLNNFYPREAKVQWKVDNALQSGNSQESVTEQDSKDSTYSLSSTLTLSKADYEKHKVYACEVTHQGLSSPVTKSFNRGEC
- cell-based VEGF stimulated VEGFR reporter assay (KDR/VEGF HEK293 cells, luminescence), IC50 (VEGF): 0.18 nM

B9: dual inhibitor variant L of Table 2.1 (AntiIL-6-VEGF Trap) (other)
heavy: EVQLVESGGGLVQPGGSLRLSCAASGFTFSPFAWSWVRQAPGKGLEWVAKISPGGSWTYYSDTVTDRFTFSLDTSKSTAYLQMNSLRAEDTAVYYCARQLWGYYALDVWGQGTLVTVSSASTKGPSVFPLAPSSKSTSGGTAALGCLVKDYFPEPVTVSWNSGALTSGVHTFPAVLQSSGLYSLSSVVTVPSSSLGTQTYICNVNHKPSNTKVDKKVEPKSCGGGGSGGGGSSDTGRPFVEMYSEIPEIIHMTEGRELVIPCRVTSPNITVTLKKFPLDTLIPDGKRIIWDSRKGFIISNATYKEIGLLTCEATVNGHLYKTNYLTHRQTNTIIDVVLSPSHGIELSVGEKLVLNCTARTELNVGIDFNWEYPSSKHQHKKLVNRDLKTQSGSEMKKFLSTLTIDGVTRSDQGLYTCAASSGLMTKKNSTFVRVHEKDKTHTCPPCPAPEAAGAPSVFLFPPKPKDTLMISRTPEVTCVVVDVSHEDPEVKFNWYVDGVEVHNAKTKPREEQYNSTYRVVSVLTVLHQDWLNGKEYKCKVSNKALPAPIEKTISKAKGQPREPQVYTLPPSREEMTKNQVSLTCLVKGFYPSDIAVEWESNGQPENNYKTTPPVLDSDGSFFLYSKLTVDKSRWQQGNVFSCSVMHEALHNHYTQKSLSCSPGK
light: DIQLTQSPSSLSASVGDRVTITCSASISVSYLYWYQQKPGKAPKLLIYDDSNLASGVPSRFSGSGSGTDFTLTISSLQPEDFATYYCQQWSGYPYTFGQGTKVEIKRTVAAPSVFIFPPSDEQLKSGTASVVCLLNNFYPREAKVQWKVDNALQSGNSQESVTEQDSKDSTYSLSSTLTLSKADYEKHKVYACEVTHQGLSSPVTKSFNRGEC
notes: Antibody-VEGF trap fusion, trap between Fab and Fc of the heavy chain (VH variant II); also called molecule L
- Kd (recombinant human IL-6 [3]): 0.436 nM
- koff (recombinant human IL-6 [3]): 0.00065 s⁻¹
- kon (recombinant human IL-6 [3]): 1.49e+06 M⁻¹ s⁻¹
- Kd (recombinant human IL-6 [4]): 0.239 nM
- koff (recombinant human IL-6 [4]): 0.000169 s⁻¹
- kon (recombinant human IL-6 [4]): 705000 M⁻¹ s⁻¹
